Reference: patent US20140322218A1 (Amgen, published 2014)
One block for each binder: values may come before it.

Experiments:
[1] = target: T1, huCDH19(44-772), Flag-tagged, on 293T cells (human, UniProt Q9H159 44-772); assay: FACS, transfected 293T
T1 construct: Expressed with native leader (1-43) followed by a Flag tag; leader left out; also called Hu EC1-5
Source text: (§1) The experiment included assaying the anti-CDH19 antibodies against mouse Cadherin19 to determine suitability for binning on these human/mouse chimeras.

[2] = target: T2, muCDH19(44-139)::huCDH19(142-364)::muCDH19(363-770), Flag-tagged, on 293T cells (human/mouse chimera); assay: FACS, transfected 293T
T2 construct: also called Hu EC2-3; C137847
Source text: as §1

[3] = target: T3, muCDH19(44-247)::huCDH19(250-364)::muCDH19(363-770), Flag-tagged, on 293T cells (human/mouse chimera); assay: FACS, transfected 293T
T3 construct: also called Hu EC3; C137911
Source text: as §1

[4] = target: T4, ckCDH19(1-43)::FLAG::ckCDH19(44-776), on 293T cells (chicken); assay: FACS, transfected 293T;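 also: antibody binding to chimera-expressing cells with 2 mM CaCl2 present, cell-bound Alexa647-labelled antibody read by flow cytometry, mock-transfected cells serving as control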
T4 construct: Entry holds leader (1-43), Flag tag and CDH19 part; leader left out; also called Ck EC1-5
T4 chain: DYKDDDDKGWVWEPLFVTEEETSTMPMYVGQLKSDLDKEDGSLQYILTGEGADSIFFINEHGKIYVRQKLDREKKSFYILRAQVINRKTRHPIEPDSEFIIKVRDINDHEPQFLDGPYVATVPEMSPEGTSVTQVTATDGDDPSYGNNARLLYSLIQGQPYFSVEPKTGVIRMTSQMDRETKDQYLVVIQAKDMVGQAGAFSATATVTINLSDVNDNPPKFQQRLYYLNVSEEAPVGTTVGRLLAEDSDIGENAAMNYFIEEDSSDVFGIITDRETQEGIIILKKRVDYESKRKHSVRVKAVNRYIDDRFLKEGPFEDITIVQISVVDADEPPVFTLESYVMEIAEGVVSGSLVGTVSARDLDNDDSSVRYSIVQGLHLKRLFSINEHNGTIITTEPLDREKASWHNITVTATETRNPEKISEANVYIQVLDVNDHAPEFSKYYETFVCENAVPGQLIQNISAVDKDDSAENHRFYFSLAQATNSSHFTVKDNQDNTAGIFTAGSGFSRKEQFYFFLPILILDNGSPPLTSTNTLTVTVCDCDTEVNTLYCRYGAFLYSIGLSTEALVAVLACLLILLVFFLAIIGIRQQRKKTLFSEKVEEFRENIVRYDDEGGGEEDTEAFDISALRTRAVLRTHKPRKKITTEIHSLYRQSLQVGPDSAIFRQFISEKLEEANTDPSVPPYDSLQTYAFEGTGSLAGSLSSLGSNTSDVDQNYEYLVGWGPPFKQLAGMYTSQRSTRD
Procedure: (§2) The following binding assay was completed in presence of 2 mM CaCl2. […] Cells were then washed one time and the amount of cell associated Alexa647-labelled Ab was quantitated by flow cytometry. The experiments included mock transfected controls.

[5] = target: T5, huCDH19(1-43)::FLAG::hu(44-141)::ckCDH19(142-776), on 293T cells (human/chicken chimera); assay: FACS, transfected 293T;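 also: antibody binding to chimera-expressing cells with 2 mM CaCl2 present, cell-bound Alexa647-labelled antibody read by flow cytometry, mock-transfected cells serving as control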
T5 construct: Entry holds leader (1-43), Flag tag and CDH19 part; leader left out; also called Hu EC1 (chicken backbone)
Procedure: as §2

[6] = target: T6, ckCDH19(1-43)::FLAG::ckCDH19(44-141)::huCDH19(142-249)::ckCDH19(250-776), on 293T cells (human/chicken chimera); assay: FACS, transfected 293T;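 also: antibody binding to chimera-expressing cells with 2 mM CaCl2 present, cell-bound Alexa647-labelled antibody read by flow cytometry, mock-transfected cells serving as control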
T6 construct: Entry holds leader (1-43), Flag tag and CDH19 part; leader left out; also called Hu EC2 (chicken backbone)
T6 chain: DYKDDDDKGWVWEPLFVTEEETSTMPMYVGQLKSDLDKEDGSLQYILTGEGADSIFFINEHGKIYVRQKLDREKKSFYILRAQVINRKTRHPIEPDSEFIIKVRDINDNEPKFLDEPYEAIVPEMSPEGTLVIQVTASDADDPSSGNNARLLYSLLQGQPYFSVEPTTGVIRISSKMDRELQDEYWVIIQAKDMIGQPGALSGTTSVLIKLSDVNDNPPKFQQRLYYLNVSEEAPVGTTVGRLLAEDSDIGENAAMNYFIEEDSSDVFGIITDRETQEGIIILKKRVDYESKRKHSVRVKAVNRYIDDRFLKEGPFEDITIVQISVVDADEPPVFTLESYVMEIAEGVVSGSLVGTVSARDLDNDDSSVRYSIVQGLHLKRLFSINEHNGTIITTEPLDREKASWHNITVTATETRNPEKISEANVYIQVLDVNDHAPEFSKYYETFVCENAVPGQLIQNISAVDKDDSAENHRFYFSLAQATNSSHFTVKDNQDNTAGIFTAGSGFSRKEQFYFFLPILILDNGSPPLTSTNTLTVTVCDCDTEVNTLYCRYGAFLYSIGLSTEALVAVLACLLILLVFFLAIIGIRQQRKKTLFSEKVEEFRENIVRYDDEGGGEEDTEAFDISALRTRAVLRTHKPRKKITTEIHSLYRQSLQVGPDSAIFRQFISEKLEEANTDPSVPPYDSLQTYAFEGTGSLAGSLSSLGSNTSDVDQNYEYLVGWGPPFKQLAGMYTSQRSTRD
Procedure: as §2

[7] = target: T7, (1-43)::FLAG::ckCDH19(44-468)::huCDH19(464-772), on 293T cells (human/chicken chimera); assay: FACS, transfected 293T;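 also: antibody binding to chimera-expressing cells with 2 mM CaCl2 present, cell-bound Alexa647-labelled antibody read by flow cytometry, mock-transfected cells serving as control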
T7 construct: Entry holds leader (1-43), Flag tag and CDH19 part; leader left out; also called Hu EC5 (chicken backbone)
T7 chain: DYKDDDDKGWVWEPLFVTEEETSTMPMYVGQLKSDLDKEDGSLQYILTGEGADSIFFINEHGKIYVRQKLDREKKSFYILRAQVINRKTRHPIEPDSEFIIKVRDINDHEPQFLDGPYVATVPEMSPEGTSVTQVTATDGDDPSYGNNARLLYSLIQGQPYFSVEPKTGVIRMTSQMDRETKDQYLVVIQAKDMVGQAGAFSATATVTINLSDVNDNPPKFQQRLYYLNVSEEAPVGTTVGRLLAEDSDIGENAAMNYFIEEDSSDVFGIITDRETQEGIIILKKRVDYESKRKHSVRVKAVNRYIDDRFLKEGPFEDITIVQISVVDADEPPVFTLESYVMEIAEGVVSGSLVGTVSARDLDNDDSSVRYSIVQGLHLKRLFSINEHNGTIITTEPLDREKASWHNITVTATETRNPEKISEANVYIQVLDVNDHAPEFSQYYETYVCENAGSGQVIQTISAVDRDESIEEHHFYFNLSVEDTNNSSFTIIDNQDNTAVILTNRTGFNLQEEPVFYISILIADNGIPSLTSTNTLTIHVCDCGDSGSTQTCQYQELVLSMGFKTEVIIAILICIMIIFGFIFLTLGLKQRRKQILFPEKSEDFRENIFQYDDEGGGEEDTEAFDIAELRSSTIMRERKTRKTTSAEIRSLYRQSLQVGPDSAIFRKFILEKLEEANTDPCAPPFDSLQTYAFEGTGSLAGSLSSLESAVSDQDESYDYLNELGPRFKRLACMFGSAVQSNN
Procedure: as §2

[8] = target: T8, muCDH19(44-770), Flag-tagged, on 293T cells (mouse); assay: FACS, transfected 293T
T8 construct: also called Mu EC1-5
T8 chain: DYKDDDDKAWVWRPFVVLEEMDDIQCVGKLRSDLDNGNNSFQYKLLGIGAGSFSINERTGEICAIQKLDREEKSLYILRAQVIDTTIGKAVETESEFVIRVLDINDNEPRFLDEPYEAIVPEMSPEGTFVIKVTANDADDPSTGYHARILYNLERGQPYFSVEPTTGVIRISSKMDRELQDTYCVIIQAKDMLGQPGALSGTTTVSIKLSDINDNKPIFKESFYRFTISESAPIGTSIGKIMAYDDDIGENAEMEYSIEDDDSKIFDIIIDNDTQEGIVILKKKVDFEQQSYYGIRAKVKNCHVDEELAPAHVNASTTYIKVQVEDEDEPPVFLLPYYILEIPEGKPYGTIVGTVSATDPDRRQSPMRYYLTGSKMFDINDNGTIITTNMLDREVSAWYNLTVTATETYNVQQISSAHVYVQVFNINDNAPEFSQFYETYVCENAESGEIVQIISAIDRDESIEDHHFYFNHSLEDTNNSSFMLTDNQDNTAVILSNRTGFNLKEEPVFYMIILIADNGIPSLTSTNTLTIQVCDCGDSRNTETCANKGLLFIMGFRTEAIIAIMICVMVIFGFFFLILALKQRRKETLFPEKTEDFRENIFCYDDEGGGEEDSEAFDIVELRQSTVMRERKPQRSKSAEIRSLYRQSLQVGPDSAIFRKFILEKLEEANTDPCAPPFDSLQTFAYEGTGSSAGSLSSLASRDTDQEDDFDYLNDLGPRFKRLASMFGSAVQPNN

[9] = target: T9, Cyno Cadherin-19 (cynomolgus monkey (Macaca fascicularis), UniProt Q9H159 44-772 (human entry)); assay: FACS, recombinant cyno CDH19
T9 construct: also called cyno CDH19; cynomologous CDH-19
T9 chain: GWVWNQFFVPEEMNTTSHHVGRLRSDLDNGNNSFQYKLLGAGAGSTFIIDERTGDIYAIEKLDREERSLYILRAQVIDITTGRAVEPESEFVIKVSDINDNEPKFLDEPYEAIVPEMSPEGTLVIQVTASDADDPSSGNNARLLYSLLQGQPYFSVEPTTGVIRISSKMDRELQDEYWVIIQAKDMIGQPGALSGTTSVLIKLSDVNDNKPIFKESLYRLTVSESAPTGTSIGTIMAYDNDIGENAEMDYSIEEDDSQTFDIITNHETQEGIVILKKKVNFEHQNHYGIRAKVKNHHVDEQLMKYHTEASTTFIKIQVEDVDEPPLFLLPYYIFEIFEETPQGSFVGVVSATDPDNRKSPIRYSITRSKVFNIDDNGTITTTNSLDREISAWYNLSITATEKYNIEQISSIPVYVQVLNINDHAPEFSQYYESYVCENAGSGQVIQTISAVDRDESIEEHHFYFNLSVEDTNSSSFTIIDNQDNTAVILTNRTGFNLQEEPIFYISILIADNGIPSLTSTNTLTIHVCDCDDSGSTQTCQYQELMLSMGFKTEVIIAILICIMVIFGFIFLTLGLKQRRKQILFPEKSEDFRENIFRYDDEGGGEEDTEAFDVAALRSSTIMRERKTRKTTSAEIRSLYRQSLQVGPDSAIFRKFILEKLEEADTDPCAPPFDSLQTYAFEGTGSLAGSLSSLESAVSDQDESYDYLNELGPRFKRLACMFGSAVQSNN

[10] = target: T10, Human Cadherin-19 (human, UniProt Q9H159 44-772); assay: FACS, endogenous CDH19 on CHL-1/Colo699
T10 construct: Residues 1-43 are named as the native leader in the construct designations and are left out; also called human CDH19; huCDH19
Procedure: FACS binding assays were performed to evaluate the binding of the anti-Cadherin-19 receptor specific antibodies to endogenous Cadherin-19 receptor expressed on the CHL-1 tumor cell lines.
FACs assays were performed by incubating hybridoma supernatants with 10,000 to 25,000 cells in PBS/2% Fetal bovine serum/2 mM Calcium Chloride at 4° C. for one hour followed by two washes with PBS/2% Fetal bovine serum/2 mM Calcium Chloride. Cells were then treated with florochrome-labeled secondary antibodies at 4° C. followed by one wash. The cells were resuspended in 50 μl of PBS/2% FBS and antibody binding was analyzed using a FACSCalibur™ instrument.

[11] = target: T11, huCDH19(44-141)::muCDH19(140-770), Flag-tagged, on 293T cells (human/mouse chimera); assay: FACS, transfected 293T
T11 construct: also called Hu EC1
Source text: as §1

[12] = target: T12, huCDH19(44-249)::muCDH19(248-770), Flag-tagged, on 293T cells (human/mouse chimera); assay: FACS, transfected 293T
T12 construct: also called Hu EC1-2; C137896
Source text: as §1

binding result [4]: no binding (tested: 5 ug/ml)
binding result [5]: binds
binding result [6]: no binding (tested: 5 ug/ml)
binding result [7]: no binding (tested: 5 ug/ml)
binding result [8]: no binding (tested: 5 ug/ml)
B2: hu anti-<huCDH19> 26F12.1 VH::huIgG1z / 26F12.1 VL::huLLC-C2 (Ab ID 13881) (antibody, V domains shown)
VH: QVQLVQSGAEVKKPGASVKVSCKASRYTFTNYYMSWVRQAPGQGLEWMGIINPSGGDSTYAQKFQGRLTMTGDTSTSTVYMELSSLRSEDTAVYYCARGGIQLWLHFDYWGQGTLVTVSS
VL: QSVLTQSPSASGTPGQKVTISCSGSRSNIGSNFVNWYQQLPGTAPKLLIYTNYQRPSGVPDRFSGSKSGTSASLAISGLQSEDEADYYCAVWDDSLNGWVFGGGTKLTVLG
notes: also called 27B3

binding result [1]: binds
binding result [11]: binds
binding result [12]: binds
binding result [9]: binds
binding result [10]: binds
B4: hu anti-<huCDH19> 25F8.1 VH::huIgG1z / 25F8.1 VL::huLLC-C2 (Ab ID 13880) (antibody, V domains shown)
VH: QVQLVQSGAEVKKPGASVKVSCKASGYTFTSYYIHWVRQAPGQGLEWMGIINPSGGSTRYAQKFQGRVTMTRDTSTSTVFMELSSLRSEDTAVYYCARGGIQLWLHFDYWGQGTLVTVSS
VL: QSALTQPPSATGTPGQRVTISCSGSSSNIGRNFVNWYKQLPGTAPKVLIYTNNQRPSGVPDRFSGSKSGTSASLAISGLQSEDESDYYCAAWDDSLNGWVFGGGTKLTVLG

binding result [9]: binds
binding result [10]: binds
B5: hu anti-<huCDH19> 4F7 VH::huIgG1z / 4F7 VL::huLLC-C1 (Ab ID 13591) (antibody, V domains shown)
VH: QVQLQESGPGLVKPSETLSLTCTVSGGSISSYSWSWIRQPPGKGLEWIGYIYYSGSTNYNPSLKSRVTISLDTSKNQFSLKLSSVTAADTAVYYCARNWAFHFDYWGQGTLVTVSS
VL: QSVLTQPPSVSGAPGQRVTISCTGSSSNIGTGYDVHWYQQLPGTAPKLLIHGNSNRPSGVPDRFSGSKSGTSASLAITGLQAEDEADYYCQSYDSSLSGWVFGGGTRLTVLG

Second part, the binder before the results:

B1: hu anti-<huCDH19> 4B10 (1-471)(R17G) VH::huIgG1z / 4B10 (1-236)(H45Q,A90T) VL::huKLC (Ab ID 14054) (antibody, V domains shown)
VH: QVQLVESGGGVVQPGGSLRLSCAASGFTFSSYDMHWVRQAPGKGLEWVAVISYDGTNEYYADSVKGRFTISRDTSKNTLYLQMNSLRAEDTAVYYCARERYFDWSFDYWGQGTLVSVSS
VL: EIVLTQSPGTLSLSPGERATLSCRASQSVSNTYLAWYQQRPGQAPRLLIYGASSRATGIPDRFSGSGSGTDFTLTISSLEPEDFAVYYCQQYSNSWTFGQGTKVEIKR
notes: Engineered variant of 4B10
binding result [1]: binds
binding result [2]: binds
binding result [3]: binds

B3: hu anti-<huCDH19> 22D1.1 VH::huIgG1z / 22D1.1 VL::huLLC-C2 (Ab ID 13879) (antibody, V domains shown)
VH: QVQLVQSGAEVKKPGASVRVSCKVSGYTFTSYFIHWVRQAPGQGLEWMGIINPISVSTSYAQKFQGRVTMTRDTSTSTVFMELSSLRSEDTAVYYCARGGIQLWLHLDYWGQGTLVTVSS
VL: QSALTQPPSATGTPGQRVTISCSGSSSNIGSNFVNWYKQLPGTAPKVLIYTNNQRPSGVPDRFSGSKSGTSASLAISGLQSEDESDYYCATWDDSMNGWVFGGGTKLTVLG
binding result [9]: binds
binding result [10]: binds
